Assay results as given in the supplement of paper PMC10567573.

B1: SCARA5 (parent)
chain: VTEDLRLKDWEHSIALRNISLAKG

Variants of: B1
Test: protein stability index of a GFP-peptide fusion (GPS, HEK-293T) (PSI 1-6); higher = more stable
Details: c terminus: a fixed tail appended
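Further: lentivirally expressed fusions sorted by FACS into six bins by GFP to DsRed ratio, PSI derived from sequencing read proportions per bin multiplied by bin number.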

**Q.** Which protein stability index does the source give for VTEDLRLKDWEHSIALRNISLAKS [G24S] here?
**A.** 3.31

**Q.** For VTEDLRLKDWEHSIALRNISLAKD [G24D], which protein stability index is on record?
**A.** 4.08

**Q.** For VTEDLRLKDWEHSIALRNISLAKQ [G24Q], which protein stability index is on record?
**A.** 3.49

**Q.** With VTEDLRLKDWEHSIALRNISLAKL [G24L] as the variant, how does the protein stability index read?
**A.** 2.04

**Q.** With VTEDLRLKDWEHSIALRNISLAKP [G24P] as the variant, how does the protein stability index read?
**A.** 3.09

**Q.** For VTEDLRLKDWEHSIALRNISLAKY [G24Y], which protein stability index is on record?
**A.** 3.14

**Q.** For VTEDLRLKDWEHSIALRNISLAKH [G24H], which protein stability index is on record?
**A.** 3.3

**Q.** With VTEDLRLKDWEHSIALRNISLAKE [G24E] as the variant, how does the protein stability index read?
**A.** 4.13

**Q.** Which protein stability index does the source give for VTEDLRLKDWEHSIALRNISLAKA [G24A] here?
**A.** 3.4

**Q.** Which protein stability index does the source give for VTEDLRLKDWEHSIALRNISLAKW [G24W] here?
**A.** 2.39

**Q.** For VTEDLRLKDWEHSIALRNISLAKI [G24I], which protein stability index is on record?
**A.** 2.42

**Q.** With VTEDLRLKDWEHSIALRNISLAKK [G24K] as the variant, how does the protein stability index read?
**A.** 3.65

**Q.** With VTEDLRLKDWEHSIALRNISLAKM [G24M] as the variant, how does the protein stability index read?
**A.** 2.95

**Q.** For VTEDLRLKDWEHSIALRNISLAKR [G24R], which protein stability index is on record?
**A.** 3.46

**Q.** With VTEDLRLKDWEHSIALRNISLAKV [G24V] as the variant, how does the protein stability index read?
**A.** 2.26

**Q.** Which protein stability index does the source give for VTEDLRLKDWEHSIALRNISLAKC [G24C] here?
**A.** 2.83

**Q.** For VTEDLRLKDWEHSIALRNISLAKT [G24T], which protein stability index is on record?
**A.** 3.43

**Q.** For VTEDLRLKDWEHSIALRNISLAKF [G24F], which protein stability index is on record?
**A.** 2.49

**Q.** For VTEDLRLKDWEHSIALRNISLAKN [G24N], which protein stability index is on record?
**A.** 3.06

**Q.** For VTEDLRLKDWEHSIALRNESLAKG [I19E], which protein stability index is on record?
**A.** 4.44

**Q.** With VTEDLRLKDWEHSIALRNKSLAKG [I19K] as the variant, how does the protein stability index read?
**A.** 4.39

**Q.** Which protein stability index does the source give for VTEDLRLKDWEHSIALRNHSLAKG [I19H] here?
**A.** 3.69

**Q.** With VTEDLRLKDWEHSIALRNYSLAKG [I19Y] as the variant, how does the protein stability index read?
**A.** 3.22

**Q.** For VTEDLRLKDWEHSIALRNNSLAKG [I19N], which protein stability index is on record?
**A.** 3.77

**Q.** For VTEDLRLKDWEHSIALRNCSLAKG [I19C], which protein stability index is on record?
**A.** 4.27

**Q.** Which protein stability index does the source give for VTEDLRLKDWEHSIALRNGSLAKG [I19G] here?
**A.** 3.99

**Q.** With VTEDLRLKDWEHSIALRNMSLAKG [I19M] as the variant, how does the protein stability index read?
**A.** 3.3

**Q.** Which protein stability index does the source give for VTEDLRLKDWEHSIALRNWSLAKG [I19W] here?
**A.** 2.62

**Q.** With VTEDLRLKDWEHSIALRNQSLAKG [I19Q] as the variant, how does the protein stability index read?
**A.** 4.44

**Q.** Which protein stability index does the source give for VTEDLRLKDWEHSIALRNRSLAKG [I19R] here?
**A.** 4.25

**Q.** For VTEDLRLKDWEHSIALRNSSLAKG [I19S], which protein stability index is on record?
**A.** 3.98

**Q.** Which protein stability index does the source give for VTEDLRLKDWEHSIALRNLSLAKG [I19L] here?
**A.** 3.05

**Q.** For VTEDLRLKDWEHSIALRNPSLAKG [I19P], which protein stability index is on record?
**A.** 3.9

**Q.** With VTEDLRLKDWEHSIALRNDSLAKG [I19D] as the variant, how does the protein stability index read?
**A.** 4.54

**Q.** With VTEDLRLKDWEHSIALRNASLAKG [I19A] as the variant, how does the protein stability index read?
**A.** 3.71

**Q.** Which protein stability index does the source give for VTEDLRLKDWEHSIALRNVSLAKG [I19V] here?
**A.** 3.74

**Q.** With VTEDLRLKDWEHSIALRNTSLAKG [I19T] as the variant, how does the protein stability index read?
**A.** 3.93

**Q.** With VTEDLRLKDWEHSIALRNFSLAKG [I19F] as the variant, how does the protein stability index read?
**A.** 3

**Q.** For VTEDLRLKDWEHSIALRNISLAFG [K23F], which protein stability index is on record?
**A.** 2.35

**Q.** With VTEDLRLKDWEHSIALRNISLATG [K23T] as the variant, how does the protein stability index read?
**A.** 2.85

**Q.** Which protein stability index does the source give for VTEDLRLKDWEHSIALRNISLARG [K23R] here?
**A.** 2.96

**Q.** For VTEDLRLKDWEHSIALRNISLALG [K23L], which protein stability index is on record?
**A.** 2.95

**Q.** Which protein stability index does the source give for VTEDLRLKDWEHSIALRNISLAAG [K23A] here?
**A.** 3.04

**Q.** Which protein stability index does the source give for VTEDLRLKDWEHSIALRNISLAMG [K23M] here?
**A.** 2.16

**Q.** With VTEDLRLKDWEHSIALRNISLADG [K23D] as the variant, how does the protein stability index read?
**A.** 3.84

**Q.** With VTEDLRLKDWEHSIALRNISLAGG [K23G] as the variant, how does the protein stability index read?
**A.** 3.14

**Q.** With VTEDLRLKDWEHSIALRNISLAQG [K23Q] as the variant, how does the protein stability index read?
**A.** 3.09

**Q.** Which protein stability index does the source give for VTEDLRLKDWEHSIALRNISLAPG [K23P] here?
**A.** 3.44

**Q.** Which protein stability index does the source give for VTEDLRLKDWEHSIALRNISLAVG [K23V] here?
**A.** 2.29

**Q.** For VTEDLRLKDWEHSIALRNISLAHG [K23H], which protein stability index is on record?
**A.** 3.29

**Q.** Which protein stability index does the source give for VTEDLRLKDWEHSIALRNISLAWG [K23W] here?
**A.** 2.22

**Q.** For VTEDLRLKDWEHSIALRNISLACG [K23C], which protein stability index is on record?
**A.** 3.1

**Q.** Which protein stability index does the source give for VTEDLRLKDWEHSIALRNISLAIG [K23I] here?
**A.** 2.36

**Q.** With VTEDLRLKDWEHSIALRNISLASG [K23S] as the variant, how does the protein stability index read?
**A.** 3.3

**Q.** Which protein stability index does the source give for VTEDLRLKDWEHSIALRNISLAYG [K23Y] here?
**A.** 1.64

**Q.** For VTEDLRLKDWEHSIALRNISLANG [K23N], which protein stability index is on record?
**A.** 3.48

**Q.** Which protein stability index does the source give for VTEDLRLKDWEHSIALRNISLAEG [K23E] here?
**A.** 3.93

**Q.** For VTEDLRLKDWEHSIALRNIHLAKG [S20H], which protein stability index is on record?
**A.** 3.04

**Q.** Which protein stability index does the source give for VTEDLRLKDWEHSIALRNIYLAKG [S20Y] here?
**A.** 2.56

**Q.** Which protein stability index does the source give for VTEDLRLKDWEHSIALRNIELAKG [S20E] here?
**A.** 2.36

**Q.** Which protein stability index does the source give for VTEDLRLKDWEHSIALRNITLAKG [S20T] here?
**A.** 2.86

**Q.** With VTEDLRLKDWEHSIALRNILLAKG [S20L] as the variant, how does the protein stability index read?
**A.** 3.37

**Q.** For VTEDLRLKDWEHSIALRNIVLAKG [S20V], which protein stability index is on record?
**A.** 3.56

**Q.** With VTEDLRLKDWEHSIALRNIWLAKG [S20W] as the variant, how does the protein stability index read?
**A.** 3.15

**Q.** For VTEDLRLKDWEHSIALRNIFLAKG [S20F], which protein stability index is on record?
**A.** 3.17

**Q.** For VTEDLRLKDWEHSIALRNIRLAKG [S20R], which protein stability index is on record?
**A.** 3.23

**Q.** With VTEDLRLKDWEHSIALRNIILAKG [S20I] as the variant, how does the protein stability index read?
**A.** 2.15

**Q.** With VTEDLRLKDWEHSIALRNIALAKG [S20A] as the variant, how does the protein stability index read?
**A.** 3.81

**Q.** For VTEDLRLKDWEHSIALRNIKLAKG [S20K], which protein stability index is on record?
**A.** 2.94

**Q.** With VTEDLRLKDWEHSIALRNIPLAKG [S20P] as the variant, how does the protein stability index read?
**A.** 3.91

**Q.** Which protein stability index does the source give for VTEDLRLKDWEHSIALRNIDLAKG [S20D] here?
**A.** 3.67

**Q.** Which protein stability index does the source give for VTEDLRLKDWEHSIALRNIQLAKG [S20Q] here?
**A.** 3.54

**Q.** For VTEDLRLKDWEHSIALRNINLAKG [S20N], which protein stability index is on record?
**A.** 3.54

**Q.** With VTEDLRLKDWEHSIALRNIMLAKG [S20M] as the variant, how does the protein stability index read?
**A.** 3.24

**Q.** With VTEDLRLKDWEHSIALRNIGLAKG [S20G] as the variant, how does the protein stability index read?
**A.** 3.66

**Q.** With VTEDLRLKDWEHSIALRNICLAKG [S20C] as the variant, how does the protein stability index read?
**A.** 3.21

**Q.** For VTEDLRLKDWEHSIALRKISLAKG [N18K], which protein stability index is on record?
**A.** 3.5

**Q.** Which protein stability index does the source give for VTEDLRLKDWEHSIALRVISLAKG [N18V] here?
**A.** 1.76

**Q.** With VTEDLRLKDWEHSIALRFISLAKG [N18F] as the variant, how does the protein stability index read?
**A.** 1.86

**Q.** With VTEDLRLKDWEHSIALRDISLAKG [N18D] as the variant, how does the protein stability index read?
**A.** 3.81

**Q.** Which protein stability index does the source give for VTEDLRLKDWEHSIALRIISLAKG [N18I] here?
**A.** 2.47

**Q.** Which protein stability index does the source give for VTEDLRLKDWEHSIALRCISLAKG [N18C] here?
**A.** 2.17

**Q.** Which protein stability index does the source give for VTEDLRLKDWEHSIALRYISLAKG [N18Y] here?
**A.** 1.95

**Q.** Which protein stability index does the source give for VTEDLRLKDWEHSIALRTISLAKG [N18T] here?
**A.** 3.58

**Q.** Which protein stability index does the source give for VTEDLRLKDWEHSIALRRISLAKG [N18R] here?
**A.** 3.15

**Q.** Which protein stability index does the source give for VTEDLRLKDWEHSIALRSISLAKG [N18S] here?
**A.** 3.37

**Q.** For VTEDLRLKDWEHSIALRQISLAKG [N18Q], which protein stability index is on record?
**A.** 2.93

**Q.** With VTEDLRLKDWEHSIALRMISLAKG [N18M] as the variant, how does the protein stability index read?
**A.** 1.81

**Q.** For VTEDLRLKDWEHSIALREISLAKG [N18E], which protein stability index is on record?
**A.** 3.68

**Q.** For VTEDLRLKDWEHSIALRGISLAKG [N18G], which protein stability index is on record?
**A.** 3.6

**Q.** For VTEDLRLKDWEHSIALRHISLAKG [N18H], which protein stability index is on record?
**A.** 2.96

**Q.** For VTEDLRLKDWEHSIALRWISLAKG [N18W], which protein stability index is on record?
**A.** 2.47

**Q.** For VTEDLRLKDWEHSIALRLISLAKG [N18L], which protein stability index is on record?
**A.** 1.35

**Q.** Which protein stability index does the source give for VTEDLRLKDWEHSIALRPISLAKG [N18P] here?
**A.** 2.81
